Drawing on patent US20260250421A1 (BIOCYTOGEN PHARMACEUTICALS BEIJING, published 2026), this text covers MFI and binding ratio for eight molecules.

Assay [1] deals with T1, human PTK7 on human cancer cell lines (human, UniProt Q13308 31-1070).
T1 construct: Endogenous PTK7 of human tumour cell lines; also called PTK7 on A-431, NCI-H520, NCI-N87, SK-OV-3, BT-20, HCC1954, NCI-H226, NCI-H358, HCT116, PC-3, NCI-H292, NCI-H1975 cells
T1 sequence: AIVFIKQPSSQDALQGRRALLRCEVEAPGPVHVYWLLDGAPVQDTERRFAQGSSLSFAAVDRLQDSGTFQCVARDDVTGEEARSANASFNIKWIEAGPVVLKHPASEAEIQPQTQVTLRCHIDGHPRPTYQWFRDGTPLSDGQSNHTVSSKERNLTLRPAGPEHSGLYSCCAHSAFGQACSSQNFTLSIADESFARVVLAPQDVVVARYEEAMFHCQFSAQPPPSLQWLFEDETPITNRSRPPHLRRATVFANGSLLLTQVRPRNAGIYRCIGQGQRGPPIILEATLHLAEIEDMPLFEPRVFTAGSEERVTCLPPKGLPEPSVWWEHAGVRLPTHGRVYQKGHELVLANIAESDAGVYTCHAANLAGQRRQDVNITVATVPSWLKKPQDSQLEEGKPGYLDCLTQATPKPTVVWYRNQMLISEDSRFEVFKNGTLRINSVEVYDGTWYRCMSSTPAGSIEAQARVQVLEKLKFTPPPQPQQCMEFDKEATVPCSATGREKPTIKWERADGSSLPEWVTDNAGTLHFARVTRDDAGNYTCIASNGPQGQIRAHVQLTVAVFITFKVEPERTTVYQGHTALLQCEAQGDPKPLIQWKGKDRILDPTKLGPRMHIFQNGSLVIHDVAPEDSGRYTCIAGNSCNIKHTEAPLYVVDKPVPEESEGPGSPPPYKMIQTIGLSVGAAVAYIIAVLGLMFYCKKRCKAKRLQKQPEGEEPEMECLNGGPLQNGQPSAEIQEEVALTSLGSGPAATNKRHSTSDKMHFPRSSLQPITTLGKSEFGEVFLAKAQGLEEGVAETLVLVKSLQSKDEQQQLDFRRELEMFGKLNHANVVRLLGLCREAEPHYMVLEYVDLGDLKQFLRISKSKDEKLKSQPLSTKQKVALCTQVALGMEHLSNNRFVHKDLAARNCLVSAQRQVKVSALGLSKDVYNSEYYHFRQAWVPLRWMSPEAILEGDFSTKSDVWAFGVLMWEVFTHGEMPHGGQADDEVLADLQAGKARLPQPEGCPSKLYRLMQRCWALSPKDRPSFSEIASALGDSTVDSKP
Description: flow cytometry, PC-3 cells, Ab 5 ug/mL. The protocol:
The binding activity of anti-PTK7 antibodies to cancer cell lines was verified by flow cytometry. […] Purified anti-PTK7 antibody with a concentration of 5 μg/mL was added to each well and was incubated at 4° C. for 30 minutes. […] The cells were collected, and the mean fluorescence intensity (MFI) was determined. Human IgG1 was used as ISO control.
A general note: In flow cytometry, cells or beads pass a laser one at a time.

Assay [2] has as its target T2, His-tagged human PTK7 protein (human, UniProt Q13308 31-704).
T2 construct: Bought protein; also called hPTK7-His; not shown: His tag
T2 sequence: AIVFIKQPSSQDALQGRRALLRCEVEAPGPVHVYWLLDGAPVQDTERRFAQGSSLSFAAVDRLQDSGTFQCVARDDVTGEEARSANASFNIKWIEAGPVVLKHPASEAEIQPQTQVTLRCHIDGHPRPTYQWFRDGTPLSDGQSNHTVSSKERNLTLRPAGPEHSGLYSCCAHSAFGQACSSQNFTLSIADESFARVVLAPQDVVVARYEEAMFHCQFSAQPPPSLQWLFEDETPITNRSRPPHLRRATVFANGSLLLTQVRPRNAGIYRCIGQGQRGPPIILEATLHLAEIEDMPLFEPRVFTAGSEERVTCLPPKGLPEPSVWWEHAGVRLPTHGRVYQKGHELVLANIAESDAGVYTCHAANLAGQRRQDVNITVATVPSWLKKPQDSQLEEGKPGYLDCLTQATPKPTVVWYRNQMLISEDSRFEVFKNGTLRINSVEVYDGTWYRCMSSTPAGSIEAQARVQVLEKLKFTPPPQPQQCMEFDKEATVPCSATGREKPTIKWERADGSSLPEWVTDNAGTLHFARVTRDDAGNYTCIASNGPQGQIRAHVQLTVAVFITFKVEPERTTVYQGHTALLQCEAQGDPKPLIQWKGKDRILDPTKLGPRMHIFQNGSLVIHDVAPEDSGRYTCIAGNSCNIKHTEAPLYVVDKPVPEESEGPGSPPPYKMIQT
In words: BLI Octet binning on hPTK7-His; competitor 1F2. As for the experimental part: Relative positions of target protein epitope between a pair of purified anti-PTK7 antibodies were analyzed by Biolayer Interferometry (BLI) using ForteBio Octet system at 30° C. A total of […] purified antibodies were used: 1A7, 1A11, 1F2, 2A5, 2D11, 2F5, 3C4 and 3E6.
1×HBS-EP+ buffer (10 mM 4-(2-hydroxyethyl)-1-piperazineethanesulfonic acid (HEPES), 150 mM NaCl, 3 mM ethylenediaminetetraacetic acid (EDTA) and 0.05% P20, pH7.4) diluted from HBS-EP+ buffer (10×) was used as the running buffer throughout the experiment. His-tagged human PTK7 protein was captured at a flow rate of 10 μL/min, and 200 nM of antibody (Analyte 1) was injected at a flow rate of 30 μL/min to bind the ligand. Another antibody (Analyte 2) was injected under the same conditions to determine whether the binding of different antibodies interfered with each other. The binding time was 300 s for each antibody.
The binding value of each antibody was obtained using Data Analysis HT 12.0. To quantify the interference of one antibody binding to another, a binding ratio was calculated to compare each pair of antibodies. The binding ratio is defined as the binding value of the second antibody (Analyte 2), divided by the binding value of the first antibody (Analyte 1). […] In general, antibody pairs that interfere with each other have the same or overlapping epitopes.
Background: In BLI a coated tip is dipped into the sample, and binding shifts an interference pattern.

B1: 1A11 (antibody, V domains shown)
VH: QVQLVQSGPGLVKPSETLSLTCTVSGGSINSYYWNWIRQPPGKGLEWIGYIYYSGSTNYNPSLKSRVTISVDTSKNQFSLKLSSVTAADTAVYYCARDPHDYIRGHFDLWGRGTLFTVSS
VL: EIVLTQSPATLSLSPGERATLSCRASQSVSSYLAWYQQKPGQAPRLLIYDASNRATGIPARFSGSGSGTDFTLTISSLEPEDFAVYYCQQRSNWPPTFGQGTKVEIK
notes: also called anti-PTK7 antibody 1A11
The molecule B1 came in with an MFI in assay [1] of 67200. In assay [2], the binding ratio amounted to 0.86.

B2: 1A7 (antibody, human IgG1, V domains shown)
VH: QVQLVESGGGVVQPGRSLRLSCAASGFTFSNYGMHWVRQAPGKGLEWVAVIYYDGSNKFYADSVKGRFTISRDNSKNTLYLQMSSLRAEDTAVYYCARDVAPPGSRAEYFHHWGQGTLVTVSS
VL: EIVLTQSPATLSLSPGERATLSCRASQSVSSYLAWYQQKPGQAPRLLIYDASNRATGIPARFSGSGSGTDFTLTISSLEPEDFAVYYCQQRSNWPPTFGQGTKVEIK
notes: also called anti-PTK7 antibody 1A7
On to B2, for which, in assay [1], the MFI was 32500. Besides, the binding ratio in assay [2] came to 0.84.

B3: 2D11 (antibody, V domains shown)
VH: QVQLVESGGGVVQPGRSLRLSCAASGFTFSSYGMHWVRQAPGKGLEWVAVIFYDGSNKYYADSVKGRFTISRDNSKNTLYLQMNSLRAEDTSVYYCARDVAAPGSRAEYFQNWGQGTLVTVSS
VL: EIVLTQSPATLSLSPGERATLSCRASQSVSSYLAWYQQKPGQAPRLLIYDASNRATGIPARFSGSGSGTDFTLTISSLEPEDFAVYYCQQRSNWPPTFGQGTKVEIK
notes: also called anti-PTK7 antibody 2D11
B3 had an MFI in assay [1] of 73000. In addition, the binding ratio in assay [2] is 0.93.

B4: 2F5 (antibody, V domains shown)
VH: QVQLVESGGGVVQPGRSLRLSCVASGFTFSNYGMHWVRQAPGKGLEWVAIIYYDGSNKYYADSVKGRFTISRDNSKNTLYLQMNSLRAEDTAVYYCARDVAAAGSRAEYLHHWGQGTLVTVSS
VL: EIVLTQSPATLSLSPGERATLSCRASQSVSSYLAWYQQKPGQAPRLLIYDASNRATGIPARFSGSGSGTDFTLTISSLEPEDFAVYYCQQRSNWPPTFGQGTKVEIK
notes: also called anti-PTK7 antibody 2F5
For B4, in assay [1], the MFI was 32400. Further, the binding ratio in assay [2] was 0.85.

B5: 2A5 (antibody, V domains shown)
VH: QVQLVQSGGGVVQPGRSLRLSCAASGFTFSNYGMHWVRQAPGKGLEWVAVIWYDGRNKYYADSVKGRFTISRDNSKNTLYLQMNSLRAEDTAVYYCARDVAPAGSRAEYFQNWGQGTLVTVSS
VL: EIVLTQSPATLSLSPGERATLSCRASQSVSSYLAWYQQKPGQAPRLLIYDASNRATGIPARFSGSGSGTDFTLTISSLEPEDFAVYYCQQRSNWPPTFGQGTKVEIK
notes: also called anti-PTK7 antibody 2A5
The molecule B5 had an MFI in assay [1] of 60700. The binding ratio in assay [2] worked out at 0.78.

B6: 1F2 (antibody, V domains shown)
VH: QVQLVQSGGGLVQPGGSLRLSCAASGFTFSRYEMNWVRQAPGKGLEWVSYINSIGSAINYADSVKGRFTISRDNAKNSLYLQMRSLRAEDTAVYYCVREDNWNPGYWGQGTLVTVSS
VL: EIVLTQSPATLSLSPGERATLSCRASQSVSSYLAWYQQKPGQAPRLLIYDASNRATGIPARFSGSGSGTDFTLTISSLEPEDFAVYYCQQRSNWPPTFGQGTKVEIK
notes: also called anti-PTK7 antibody 1F2
B6 yielded an MFI in assay [1] of 34900. In assay [2], the binding ratio is 0.03.

B7: 3C4 (antibody, V domains shown)
VH: QVQLEQSRAEVKKPGESLRISCKGSGYSFTSYWISWVRQMPGKGLEWMGRIDPSDSYTNYNPSFQGHVTISADKSISTAYLQWSSLKASDTAMYYCARRDGSYFDFDYWGQGTLVTVSS
VL: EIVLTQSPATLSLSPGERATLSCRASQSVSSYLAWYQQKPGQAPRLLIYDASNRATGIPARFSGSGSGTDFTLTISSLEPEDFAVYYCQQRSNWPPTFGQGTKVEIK
notes: also called anti-PTK7 antibody 3C4
Take B7: the MFI in assay [1] was 66700. For the same molecule, in assay [2], the binding ratio was found to be 0.9.

B8: 3E6 (antibody, V domains shown)
VH: QVQLVESGAEVKKPGESLRISCRGSGYSFTSYWISWVRQMPGKGLEWMGRIDPSDSYTKYSPSFQGHVTISADKSISTAYLQWSSLKASDTAMYYCARRDGDYFDFDYWGQGTLVTVSS
VL: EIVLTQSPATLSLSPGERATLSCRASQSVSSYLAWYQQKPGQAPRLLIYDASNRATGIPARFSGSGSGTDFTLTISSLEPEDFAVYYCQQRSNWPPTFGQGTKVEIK
notes: also called anti-PTK7 antibody 3E6
Take B8: the MFI in assay [1] came to 94600. Besides, in assay [2], the binding ratio was found to be 0.74.
